# Laboratory results taken from publication PMC5206653, “PDLIM5 links kidney anion exchanger 1 (kAE1) to ILK and is required for membrane targeting of kAE1” (Scientific Reports, 2017).
# T1: tag-free PDZ domain of PDLIM5 (PDLIM5-PDZ), first 127 residues (human, UniProt Q96HC4 1-127)
# T1 construct: cDNA amplified from human kidney cDNA; a degradation product of the full-length construct in pSUMO3; also called untagged PDLIM5-PDZ; source: E. coli BL21, purified (Ni-NTA, SUMO proteinase 2 digestion, size-exclusion chromatography); not shown: His6-SUMO3, N-terminal, cleaved
# T1 sequence (looked up): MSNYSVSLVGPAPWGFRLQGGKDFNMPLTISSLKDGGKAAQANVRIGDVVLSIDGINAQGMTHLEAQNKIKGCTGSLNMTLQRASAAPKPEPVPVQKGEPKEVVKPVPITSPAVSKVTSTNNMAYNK
# Molecular target: T1, tag-free PDZ domain of PDLIM5 …
# Experiment: ELISA; 100 μl of 30 μM GST_AE1C-WT, -Δ11, -M909T or GST alone immobilised on a 96-well plate; incubated with 100 μl of 2 μg/ml GST_PDLIM5, tag-free PDLIM5-PDZ or GST_ILK; detection with anti-PDLIM5-nt or anti-ILK, HRP, ABTS
# Settings: both partners purified
row,binding result,Binder
1,binds,"LIFRNVELQCLDADDAKATFDEEEGRDEYDEVAMPV (domain or fragment, human, last 36 residues of anion exchanger 1 (AE1, SLC4A1), the cytosolic C-terminal tail; cloned into pGEX-4T-1; source: E. coli BL21, purified (glutathione sepharose beads); not shown: GST, N-terminal, kept) [GST-tagged AE1 C-terminal domain, wild type (GST_AE1C-WT)]"
2,binds,"LIFRNVELQCLDADDAKATFDEEEGRDEYDEVATPV (domain or fragment, human, UniProt P02730 876-911, looked up, last 36 residues of anion exchanger 1 (AE1, SLC4A1) with the dRTA-causing mutation M909T; cloned into pGEX-4T-1; C-terminus becomes A908TPV; source: E. coli BL21, purified (glutathione sepharose beads); not shown: GST, N-terminal, kept) [GST-tagged AE1 C-terminal domain with the missense mutation M909T (GST_AE1C-M909T)]"
